No end group written: not given here.
Tests used:
Experiment in all cases: Kinase Profiling Assay
Assay type in all cases: biochemical
Settings in all cases: peptide 100 μM
[1] = biological target: T1, ALK4(h) (Homo sapiens, UniProt P36896)
T1 sequence (P36896 24-505): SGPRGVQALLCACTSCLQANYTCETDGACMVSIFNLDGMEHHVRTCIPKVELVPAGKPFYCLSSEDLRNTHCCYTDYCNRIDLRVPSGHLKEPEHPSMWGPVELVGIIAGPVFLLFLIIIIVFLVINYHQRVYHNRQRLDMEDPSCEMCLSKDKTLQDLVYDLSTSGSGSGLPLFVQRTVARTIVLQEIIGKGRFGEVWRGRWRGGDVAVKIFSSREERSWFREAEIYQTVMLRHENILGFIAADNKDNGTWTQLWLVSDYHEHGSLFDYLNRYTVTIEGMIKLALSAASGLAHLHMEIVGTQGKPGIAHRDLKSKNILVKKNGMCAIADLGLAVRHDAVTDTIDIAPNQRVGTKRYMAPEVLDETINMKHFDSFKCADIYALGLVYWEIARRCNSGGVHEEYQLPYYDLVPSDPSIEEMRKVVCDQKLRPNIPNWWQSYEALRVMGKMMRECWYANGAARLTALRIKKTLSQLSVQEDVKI
Protocol: (§1) Every kinase activity measurement was conducted in duplicate.
(§2) Specifically, in these assays, a positively charged substrate is phosphorylated with a radiolabeled phosphate group from an ATP if the kinase is not inhibited by an inhibitor peptide. The positively charged substrate then is attracted to a negatively charged filter membrane, quantified with a scintillation counter, and compared to a 100% activity control.
(§3) In addition to determining the IC50 of the compound, the specificity of MK2 inhibitory peptides was assessed by examining activities of all 266 human kinases available for testing in the Millipore kinase profiling service (Table 1).

[2] = biological target: T2, MAPKAP-K3(h) (Homo sapiens, UniProt Q16644)
T2 construct: purchased Millipore
T2 sequence (Q16644 whole entry): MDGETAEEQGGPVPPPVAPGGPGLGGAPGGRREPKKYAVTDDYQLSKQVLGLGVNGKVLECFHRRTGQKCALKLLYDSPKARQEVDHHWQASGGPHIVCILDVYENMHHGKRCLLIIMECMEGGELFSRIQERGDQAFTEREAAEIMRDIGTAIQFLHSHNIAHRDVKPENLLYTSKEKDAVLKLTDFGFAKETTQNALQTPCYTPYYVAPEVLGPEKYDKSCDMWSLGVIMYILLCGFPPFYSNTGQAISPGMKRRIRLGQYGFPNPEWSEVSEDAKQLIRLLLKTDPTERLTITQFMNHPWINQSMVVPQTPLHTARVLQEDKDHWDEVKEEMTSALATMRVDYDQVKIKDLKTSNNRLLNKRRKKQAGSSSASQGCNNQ
Protocol: as §1, §2, §3

[3] = biological target: cKit(D816V)(h) (Homo sapiens, UniProt P10721, D816V)
Protocol: as §1, §2, §3

[4] = biological target: FGFR4(h) (Homo sapiens, UniProt P22455)
Protocol: as §1, §2, §3

[5] = biological target: Ros(h) (Homo sapiens, UniProt P08922)
Protocol: as §1, §2, §3

[6] = biological target: CSK(h) (Homo sapiens, UniProt P41240)
Sequence of CSK(h) (P41240 whole entry): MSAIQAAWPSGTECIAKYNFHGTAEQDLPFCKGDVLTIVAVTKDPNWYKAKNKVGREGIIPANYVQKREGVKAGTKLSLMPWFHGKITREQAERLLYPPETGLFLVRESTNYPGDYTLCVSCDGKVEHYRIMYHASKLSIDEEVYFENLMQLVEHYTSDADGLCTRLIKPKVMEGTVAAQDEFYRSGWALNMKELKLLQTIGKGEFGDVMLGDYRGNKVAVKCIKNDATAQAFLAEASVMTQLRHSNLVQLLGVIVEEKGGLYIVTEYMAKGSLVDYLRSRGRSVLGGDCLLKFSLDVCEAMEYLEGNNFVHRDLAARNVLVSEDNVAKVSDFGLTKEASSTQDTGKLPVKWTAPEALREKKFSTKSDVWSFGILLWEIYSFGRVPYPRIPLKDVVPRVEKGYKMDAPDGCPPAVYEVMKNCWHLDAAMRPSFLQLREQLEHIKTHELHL
Protocol: as §1, §2, §3

[7] = biological target: T3, PKG1β(h) (Homo sapiens, UniProt Q13976)
T3 sequence (Q13976 1-686 isoform Q13976-2): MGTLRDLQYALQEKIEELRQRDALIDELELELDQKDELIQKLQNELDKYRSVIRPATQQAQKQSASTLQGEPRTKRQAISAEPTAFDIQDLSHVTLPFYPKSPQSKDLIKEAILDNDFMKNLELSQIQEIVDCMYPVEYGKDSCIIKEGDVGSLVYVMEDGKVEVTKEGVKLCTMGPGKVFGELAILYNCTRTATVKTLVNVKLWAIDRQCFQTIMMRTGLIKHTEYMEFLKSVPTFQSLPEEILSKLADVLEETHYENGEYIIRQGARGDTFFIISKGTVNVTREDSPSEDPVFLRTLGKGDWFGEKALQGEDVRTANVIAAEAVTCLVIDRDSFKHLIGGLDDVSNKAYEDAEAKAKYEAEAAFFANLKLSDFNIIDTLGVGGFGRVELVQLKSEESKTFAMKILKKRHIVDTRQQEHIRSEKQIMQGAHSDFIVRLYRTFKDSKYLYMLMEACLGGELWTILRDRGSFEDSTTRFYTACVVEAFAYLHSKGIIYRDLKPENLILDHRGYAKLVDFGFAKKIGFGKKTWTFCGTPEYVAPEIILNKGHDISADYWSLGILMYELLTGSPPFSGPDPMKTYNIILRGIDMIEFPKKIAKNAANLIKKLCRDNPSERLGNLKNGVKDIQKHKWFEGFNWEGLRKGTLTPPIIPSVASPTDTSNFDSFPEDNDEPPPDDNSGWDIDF
Protocol: as §1, §2, §3

[8] = biological target: CDK6/cyclinD3(h) (Homo sapiens, UniProt Q00534)
Protocol: as §1, §2, §3

[9] = biological target: EphA7(h) (Homo sapiens, UniProt Q15375)
Protocol: as §1, §2, §3

[10] = biological target: PKCγ(h) (Homo sapiens, UniProt P05129)
Protocol: as §1, §2, §3

[11] = biological target: ACK1(h) (Homo sapiens, UniProt Q07912)
Protocol: as §1, §2, §3

[12] = biological target: CaMKIIδ(h) (Homo sapiens, UniProt Q13557)
Protocol: as §1, §2, §3

[13] = biological target: T4, Rsk4(h) (Homo sapiens, UniProt Q9UK32)
T4 construct: purchased Millipore
T4 sequence (Q9UK32 whole entry): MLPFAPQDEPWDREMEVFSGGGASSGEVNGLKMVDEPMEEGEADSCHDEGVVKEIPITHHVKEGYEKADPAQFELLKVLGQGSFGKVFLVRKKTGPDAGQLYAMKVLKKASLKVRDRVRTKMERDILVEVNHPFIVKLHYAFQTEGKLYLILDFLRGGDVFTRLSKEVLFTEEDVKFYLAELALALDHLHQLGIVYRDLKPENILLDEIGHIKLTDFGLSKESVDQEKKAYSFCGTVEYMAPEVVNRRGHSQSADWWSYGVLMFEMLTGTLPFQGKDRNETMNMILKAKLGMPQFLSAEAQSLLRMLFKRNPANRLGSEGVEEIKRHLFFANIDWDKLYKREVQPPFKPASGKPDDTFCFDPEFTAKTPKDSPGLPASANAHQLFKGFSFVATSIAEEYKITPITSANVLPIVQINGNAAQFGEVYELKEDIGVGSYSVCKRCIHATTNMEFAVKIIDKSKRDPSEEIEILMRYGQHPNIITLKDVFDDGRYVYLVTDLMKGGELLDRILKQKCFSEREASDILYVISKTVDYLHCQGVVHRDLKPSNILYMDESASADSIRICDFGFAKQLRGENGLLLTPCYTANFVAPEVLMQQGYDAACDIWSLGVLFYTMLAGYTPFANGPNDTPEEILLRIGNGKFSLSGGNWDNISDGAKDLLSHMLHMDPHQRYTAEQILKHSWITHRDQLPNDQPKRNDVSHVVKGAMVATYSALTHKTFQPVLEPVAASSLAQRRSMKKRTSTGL
Protocol: as §1, §2, §3

[14] = biological target: Rsk2(h) (Homo sapiens, UniProt P51812)
Sequence of Rsk2(h) (P51812 whole entry): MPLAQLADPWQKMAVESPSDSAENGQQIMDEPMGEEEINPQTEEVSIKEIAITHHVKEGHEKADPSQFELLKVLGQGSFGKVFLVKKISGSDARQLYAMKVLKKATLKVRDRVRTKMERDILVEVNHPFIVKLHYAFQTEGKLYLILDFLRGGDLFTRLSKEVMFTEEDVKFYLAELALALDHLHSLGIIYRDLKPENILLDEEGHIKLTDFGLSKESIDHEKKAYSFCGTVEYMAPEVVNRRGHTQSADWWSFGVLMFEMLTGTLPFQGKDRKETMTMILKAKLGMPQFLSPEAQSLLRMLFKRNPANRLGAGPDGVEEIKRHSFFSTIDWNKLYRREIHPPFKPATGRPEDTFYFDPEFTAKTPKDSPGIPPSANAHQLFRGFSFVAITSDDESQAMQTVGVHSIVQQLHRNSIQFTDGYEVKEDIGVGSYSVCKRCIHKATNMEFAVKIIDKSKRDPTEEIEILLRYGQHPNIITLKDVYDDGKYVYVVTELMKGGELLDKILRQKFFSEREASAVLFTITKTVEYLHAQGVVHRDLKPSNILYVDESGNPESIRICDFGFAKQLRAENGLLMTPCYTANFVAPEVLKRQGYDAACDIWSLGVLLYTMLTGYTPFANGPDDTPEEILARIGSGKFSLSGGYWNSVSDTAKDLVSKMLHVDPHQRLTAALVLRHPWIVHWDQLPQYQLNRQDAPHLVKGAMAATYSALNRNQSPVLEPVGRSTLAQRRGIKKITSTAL
Protocol: as §1, §2, §3

[15] = biological target: PKCβII(h) (Homo sapiens, UniProt P05771)
Sequence of PKCβII(h) (P05771 1-673 isoform P05771-2): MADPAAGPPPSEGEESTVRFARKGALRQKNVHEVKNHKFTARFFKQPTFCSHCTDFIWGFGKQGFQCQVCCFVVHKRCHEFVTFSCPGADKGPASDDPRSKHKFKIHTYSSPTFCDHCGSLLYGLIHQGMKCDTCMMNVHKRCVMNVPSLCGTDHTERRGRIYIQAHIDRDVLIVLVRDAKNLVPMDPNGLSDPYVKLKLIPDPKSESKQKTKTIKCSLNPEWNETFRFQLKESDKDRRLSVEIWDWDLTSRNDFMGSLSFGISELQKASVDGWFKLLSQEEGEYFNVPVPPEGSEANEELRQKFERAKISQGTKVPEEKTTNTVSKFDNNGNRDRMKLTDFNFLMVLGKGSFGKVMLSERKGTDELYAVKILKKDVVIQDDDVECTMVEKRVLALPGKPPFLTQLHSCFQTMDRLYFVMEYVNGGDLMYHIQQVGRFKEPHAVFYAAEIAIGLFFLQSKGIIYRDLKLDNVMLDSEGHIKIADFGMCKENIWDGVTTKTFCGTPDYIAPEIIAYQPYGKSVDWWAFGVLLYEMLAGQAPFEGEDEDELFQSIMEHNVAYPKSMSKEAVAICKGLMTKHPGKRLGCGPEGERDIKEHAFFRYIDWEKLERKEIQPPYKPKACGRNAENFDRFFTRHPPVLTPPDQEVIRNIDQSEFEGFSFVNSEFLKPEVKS
Protocol: as §1, §2, §3

[16] = biological target: PKCα(h) (Homo sapiens, UniProt P17252)
Protocol: as §1, §2, §3

[17] = biological target: cKit(V560G)(h) (Homo sapiens, UniProt P10721, V560G)
Protocol: as §1, §2, §3

[18] = biological target: T5, Mnk2(h) (Homo sapiens, UniProt Q9HBH9)
T5 construct: purchased Millipore
T5 sequence (Q9HBH9 whole entry): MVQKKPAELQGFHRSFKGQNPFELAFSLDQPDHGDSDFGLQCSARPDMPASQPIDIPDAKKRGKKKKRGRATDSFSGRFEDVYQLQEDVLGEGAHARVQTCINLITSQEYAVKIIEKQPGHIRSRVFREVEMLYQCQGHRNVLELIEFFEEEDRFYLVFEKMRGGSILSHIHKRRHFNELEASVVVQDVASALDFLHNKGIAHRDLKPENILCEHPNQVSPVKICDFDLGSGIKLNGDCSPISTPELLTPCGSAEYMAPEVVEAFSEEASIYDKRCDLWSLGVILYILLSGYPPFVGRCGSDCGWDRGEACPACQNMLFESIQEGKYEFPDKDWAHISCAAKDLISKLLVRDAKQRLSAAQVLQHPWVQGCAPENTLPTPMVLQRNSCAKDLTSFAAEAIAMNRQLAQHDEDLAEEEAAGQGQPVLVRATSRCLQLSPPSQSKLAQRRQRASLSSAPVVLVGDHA
Protocol: as §1, §2, §3

[19] = biological target: CDK1/cyclinB(h) (Homo sapiens, UniProt P06493)
Protocol: as §1, §2, §3

Sequence | % activity [1] [%] | % activity [2] [%] | % activity [3] [%] | % activity [4] [%] | % activity [5] [%] | % activity [6] [%] | % activity [7] [%] | % activity [8] [%] | % activity [9] [%] | % activity [10] [%] | % activity [11] [%] | % activity [12] [%] | % activity [13] [%] | % activity [14] [%] | % activity [15] [%] | % activity [16] [%] | % activity [17] [%] | % activity [18] [%] | % activity [19] [%]
YARAAARQARAKALNRQLGVA (Mammal) [MMI-0200] | 152 | 39 | 118 | 75 | 86 | 33 | 57 | 100 | 220 | 101 | 97 | 2 | 125 | 101 | 100 | 100 | – | – | –
YARAAARQARAKALARQLGVAA [MMI-0100] | 124 | 27 | – | – | – | – | 71 | – | 193 | – | – | – | 99 | – | – | – | 94 | – | –
HRRIKAWLKKIKALARQLGVAA (Mammal) [MMI-0500] | 81 | 9 | 30 | 3 | 150 | 2 | 24 | 23 | 189 | 6 | 64 | 1 | 29 | 14 | 3 | 3 | 198 | 6 | 57
KAFAKLAARLYRKALARQLGVAA [MMI-0400] | 130 | 7 | 35 | 19 | 99 | 16 | 53 | 85 | 222 | 79 | 95 | 2 | 91 | 38 | 75 | 86 | 124 | 86 | 74
FAKLAARLYRKALARQLGVAA [MMI-0300] | 140 | 3 | 60 | 28 | 95 | 49 | 50 | 86 | 159 | 89 | – | 1 | 90 | 51 | 82 | 89 | – | 89 | 73
